Biological target: T1, wild-type full-length FADD (FADD^FuL) (human), Q13158
T1 chain: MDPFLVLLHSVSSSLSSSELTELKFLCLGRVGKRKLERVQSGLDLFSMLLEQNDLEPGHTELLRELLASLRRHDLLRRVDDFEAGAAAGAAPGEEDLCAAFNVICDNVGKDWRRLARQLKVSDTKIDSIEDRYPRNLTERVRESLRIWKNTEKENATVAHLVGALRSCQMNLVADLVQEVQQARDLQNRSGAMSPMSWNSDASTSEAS
Assay: cryo-EM structure; FA^FuL-C8^FuL_FGLG_CADA-CF complex; Complex A without cross-linking (7.5 Å) and Complex B stabilised by GraFix, glutaraldehyde (3.7 Å); Casp-8 protease domain and FADD DD not visible
Details: remark: other sources report otherwise

stoichiometry N: 3
B1: wild-type full-length FADD (FADD^FuL), Q13158 1-208 (natural protein)
chain: T1 chain

— PMC11074299
